Source: article PMC9709061

Molecular target: HSP90β (human) (UniProt P08238)
Assay: cryo-EM structure; HSP90–CDC37–BRAF^V600E complex incubated with PP5 D274N, purified by SEC, cross-linked with 1 mM BS3; one sample gave three classes: HCK (3.4 Å), HCK-P open (4.2 Å), HCK-P closed (3.9 Å); PP5 modelled by rigid-body docking

stoichiometry N: 2
Substance: HSP90β, P08238 1-724 (natural protein; phosphorylation at Ser226 and Ser255 found by mass spectrometry; phosphorylation at Ser226 and Ser255 found by mass spectrometry; other documents disagree on this pair)
